Source: publication PMC12586603

Molecular target: T1, 3xFLAG-HSF1, Q00613
T1 chain: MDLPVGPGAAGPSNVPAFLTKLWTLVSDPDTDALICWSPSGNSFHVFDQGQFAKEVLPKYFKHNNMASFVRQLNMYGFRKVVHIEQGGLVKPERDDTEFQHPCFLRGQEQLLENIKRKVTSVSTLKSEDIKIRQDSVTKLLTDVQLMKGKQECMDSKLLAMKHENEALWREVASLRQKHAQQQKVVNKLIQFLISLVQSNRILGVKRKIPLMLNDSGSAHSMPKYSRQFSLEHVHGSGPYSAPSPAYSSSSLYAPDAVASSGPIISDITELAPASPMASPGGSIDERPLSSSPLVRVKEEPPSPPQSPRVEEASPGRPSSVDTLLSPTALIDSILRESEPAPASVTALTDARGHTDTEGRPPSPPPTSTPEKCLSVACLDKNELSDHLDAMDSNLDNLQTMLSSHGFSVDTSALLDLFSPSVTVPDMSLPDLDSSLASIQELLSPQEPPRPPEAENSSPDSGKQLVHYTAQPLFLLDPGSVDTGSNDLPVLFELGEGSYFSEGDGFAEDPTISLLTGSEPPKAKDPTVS
Experiment: cross-linking; cell extracts from transfected 293T cells, in vitro cross-linking with 2 mM ethylene glycol bis(succinimidyl succinate) (EGS), immunoblot; with or without DBC1 overexpression
Conditions: remark: other sources report otherwise

stoichiometry N: 3
B1: 3xFLAG-HSF1, Q00613 1-529 (natural protein)
chain: MDLPVGPGAAGPSNVPAFLTKLWTLVSDPDTDALICWSPSGNSFHVFDQGQFAKEVLPKYFKHNNMASFVRQLNMYGFRKVVHIEQGGLVKPERDDTEFQHPCFLRGQEQLLENIKRKVTSVSTLKSEDIKIRQDSVTKLLTDVQLMKGKQECMDSKLLAMKHENEALWREVASLRQKHAQQQKVVNKLIQFLISLVQSNRILGVKRKIPLMLNDSGSAHSMPKYSRQFSLEHVHGSGPYSAPSPAYSSSSLYAPDAVASSGPIISDITELAPASPMASPGGSIDERPLSSSPLVRVKEEPPSPPQSPRVEEASPGRPSSVDTLLSPTALIDSILRESEPAPASVTALTDARGHTDTEGRPPSPPPTSTPEKCLSVACLDKNELSDHLDAMDSNLDNLQTMLSSHGFSVDTSALLDLFSPSVTVPDMSLPDLDSSLASIQELLSPQEPPRPPEAENSSPDSGKQLVHYTAQPLFLLDPGSVDTGSNDLPVLFELGEGSYFSEGDGFAEDPTISLLTGSEPPKAKDPTVS
